From US20200199241A1 (Chugai, published 2020)

T1: FcγRIIa type R (human, UniProt P12318 36-217)
T1 construct: also called FcγRIIaR; FcgRIIaR
T1 chain: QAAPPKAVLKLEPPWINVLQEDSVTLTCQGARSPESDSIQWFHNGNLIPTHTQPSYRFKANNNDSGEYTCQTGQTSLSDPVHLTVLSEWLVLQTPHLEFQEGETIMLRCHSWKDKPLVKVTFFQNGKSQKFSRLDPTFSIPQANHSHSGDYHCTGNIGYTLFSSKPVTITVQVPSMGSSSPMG

T2: FcγRIIa type H (human, UniProt P12318 36-217)
T2 construct: also called FcγRIIaH; FcγRIIH
T2 sequence: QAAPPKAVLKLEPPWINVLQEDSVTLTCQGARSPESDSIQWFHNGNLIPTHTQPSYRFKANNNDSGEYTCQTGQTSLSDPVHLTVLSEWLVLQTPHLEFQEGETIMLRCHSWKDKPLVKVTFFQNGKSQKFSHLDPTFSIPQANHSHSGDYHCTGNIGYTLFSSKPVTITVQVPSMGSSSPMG

T3: FcγRIIb (human, UniProt P31994 43-217, limits assumed)
T3 construct: also called FcgRIIb; FcγIIB
T3 sequence: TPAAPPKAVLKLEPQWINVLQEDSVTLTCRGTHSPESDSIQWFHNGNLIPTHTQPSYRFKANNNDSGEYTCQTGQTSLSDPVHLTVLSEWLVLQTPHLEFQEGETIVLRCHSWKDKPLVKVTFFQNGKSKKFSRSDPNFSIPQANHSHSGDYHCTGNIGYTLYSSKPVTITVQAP

T4: FcγRIIa type R (human, UniProt P12318 36-217)
T4 construct: also called FcγRIIaR; FcγRIIa(R)
T4 chain: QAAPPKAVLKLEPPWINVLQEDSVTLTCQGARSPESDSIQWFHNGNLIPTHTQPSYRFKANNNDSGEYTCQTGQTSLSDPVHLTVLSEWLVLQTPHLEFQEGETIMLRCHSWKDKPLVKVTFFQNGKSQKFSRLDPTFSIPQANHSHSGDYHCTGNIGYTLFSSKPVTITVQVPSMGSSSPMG

T5: FcγRIIa type H (human, UniProt P12318 36-217)
T5 construct: also called FcγRIIaH; FcγRIIa(H)
T5 sequence: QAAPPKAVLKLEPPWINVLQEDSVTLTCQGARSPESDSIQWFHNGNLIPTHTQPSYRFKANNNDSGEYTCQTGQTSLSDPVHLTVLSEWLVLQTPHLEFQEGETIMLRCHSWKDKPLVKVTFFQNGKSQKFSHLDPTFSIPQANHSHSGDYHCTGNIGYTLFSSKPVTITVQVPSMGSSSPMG

T6: FcγRIIb (human, UniProt P31994 43-217, limits assumed)
T6 construct: also called FcγIIB; CD32
T6 sequence: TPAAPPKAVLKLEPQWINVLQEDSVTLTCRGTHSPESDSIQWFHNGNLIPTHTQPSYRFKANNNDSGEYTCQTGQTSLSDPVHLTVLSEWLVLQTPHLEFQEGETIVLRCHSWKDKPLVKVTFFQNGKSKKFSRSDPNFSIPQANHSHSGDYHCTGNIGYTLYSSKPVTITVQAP


Experiments:
FcγRIa [1] = molecular target: T7, FcγRIa (human, UniProt P12314 16-292, limits assumed); test: SPR (Biacore), FcγR over captured antibody
T7 construct: also called FcgRIa; CD64
T7 sequence (P12314 16-292 limits assumed): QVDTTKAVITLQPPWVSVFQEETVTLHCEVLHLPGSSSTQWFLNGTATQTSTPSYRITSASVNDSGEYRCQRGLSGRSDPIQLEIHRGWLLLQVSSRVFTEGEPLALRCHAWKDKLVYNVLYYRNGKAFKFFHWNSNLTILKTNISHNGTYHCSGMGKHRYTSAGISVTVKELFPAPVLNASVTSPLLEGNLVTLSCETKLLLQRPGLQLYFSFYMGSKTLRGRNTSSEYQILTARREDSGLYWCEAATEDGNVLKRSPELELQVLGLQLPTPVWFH

FcγRIIa type R [2] = molecular target: T1, FcγRIIa type R; test: SPR (Biacore), FcγR over captured antibody
FcγRIIa type H [3] = molecular target: T2, FcγRIIa type H; test: SPR (Biacore), FcγR over captured antibody
FcγRIIb [4] = molecular target: T3, FcγRIIb; test: SPR (Biacore), FcγR over captured antibody
FcγRIIIa type V [5] = molecular target: T8, FcγRIIIa type V (human, UniProt P08637 17-208, limits assumed); test: SPR (Biacore), FcγR over captured antibody
T8 construct: also called FcγRIIIaV; FcgRIIIaV
T8 sequence (P08637 other isoform, or with tags, fused parts or gaps limits assumed): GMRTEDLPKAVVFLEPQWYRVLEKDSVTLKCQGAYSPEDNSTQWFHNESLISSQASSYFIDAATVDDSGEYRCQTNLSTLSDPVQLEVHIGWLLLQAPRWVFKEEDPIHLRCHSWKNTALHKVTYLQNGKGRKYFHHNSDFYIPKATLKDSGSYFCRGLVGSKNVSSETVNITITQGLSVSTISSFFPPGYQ

FcγRIa [6] = molecular target: T9, FcγRIa (human, UniProt P12314 16-292, limits assumed); test: SPR (Biacore), method of Example 14
T9 construct: also called CD64
T9 sequence (P12314 16-292 limits assumed): as the sequence (P12314 16-292 limits assumed) above

FcγRIIa type R [7] = molecular target: T4, FcγRIIa type R; test: SPR (Biacore), method of Example 14
FcγRIIa type H [8] = molecular target: T5, FcγRIIa type H; test: SPR (Biacore), method of Example 14
FcγRIIb [9] = molecular target: T6, FcγRIIb; test: SPR (Biacore), method of Example 14
FcγRIIIa type V [10] = molecular target: T10, FcγRIIIa type V (human, UniProt P08637 17-208, limits assumed); test: SPR (Biacore), method of Example 14
T10 construct: also called FcγRIIIaV; FcγRIIIa(V)
T10 sequence (P08637 17-208 F176V limits assumed): as the sequence (P08637 other isoform, or with tags, fused parts or gaps limits assumed) above, with S179A counted along it

FcγRIIb [11] = molecular target: T6, FcγRIIb; test: ratio of SPR KD values, parent IL6R-B3/IL6R-L
FcγRIIb [12] = molecular target: T6, FcγRIIb; test: SPR (Biacore); KD for FcγRIIaH divided by KD for FcγRIIb of the same antibody; column head in Table 52-1
Description: (§1) Furthermore, KD(IIaR)/KD(IIb) and KD(IIaH)/KD(IIb) in the table respectively represent the value obtained by dividing the KD value of each variant for FcγRIIaR by the KD value of each variant for FcγRIIb, and the value obtained by dividing the KD value of each variant for FcγRIIaH by the KD value of each variant for FcγRIIb. KD(IIb) of the parent polypeptide/KD(IIb) of the altered polypeptide refers to the value obtained by dividing the KD value of the parent polypeptide for FcγRIIb by the KD value of each variant for FcγRIIb.

FcγRIIb [13] = molecular target: T6, FcγRIIb; test: SPR (Biacore); KD for FcγRIIaR divided by KD for FcγRIIb of the same antibody; column head in Table 52-1
Description: as §1

Kd (FcγRIa [1]) [nM]	Kd (FcγRIIa type R [2]) [nM]	Kd (FcγRIIa type H [3]) [nM]	Kd (FcγRIIb [4]) [nM]	Kd (FcγRIIIa type V [5]) [nM]	Kd (FcγRIa [6]) [nM]	Kd (FcγRIIa type R [7]) [nM]	Kd (FcγRIIa type H [8]) [nM]	Kd (FcγRIIb [9]) [nM]	Kd (FcγRIIIa type V [10]) [nM]	KD(IIb) of the parent polypeptide/KD(IIb) of altered polypeptide (FcγRIIb [11]) [fold]	KD(IIaH)/KD(IIb) (FcγRIIb [12])	KD(IIaR)/KD(IIb) (FcγRIIb [13])	Binder
–	–	–	–	–	63	880	–	69	36000	44.5	105	12.6	IL6R-BP185/IL6R-L (antibody, human IgG1, Anti-IL-6R human IgG1 variant; copies: 2 + 2) heavy: QVQLQESGPGLVKPSETLSLTCAVSGHSISHDHAWSWVRQPPGEGLEWIGFISYSGITNYNPSLQGRVTISRDNSKNTLYLQMNSLRAEDTAVYYCARSLARTTAMDYWGEGTLVTVSSASTKGPSVFPLAPSSKSTSGGTAALGCLVKDYFPEPVTVSWNSGALTSGVHTFPAVLQSSGLYSLSSVVTVPSSSLGTQTYICNVNHKPSNTKVDKKVEPKSCDKTHTCPPCPAPDYLGDDSVFLFPPKPKDTLMISRTPEVTCVVVDVSHEDGEVKFNWYVDGVEVHNAKTKPREEQYNSTYRVVSVLTVLHQDWLNGKEYKCKVSNAALPKPIEKTISKAKGQPREPQVYTLPPSRDELTKNQVSLTCLVKGFYPSDIAVEWESNGQPENNYKTTPPVLDSDGSFFLYSKLTVDKSRWQQGNVFSCSVMHEALHNHYTQESLSLSP light: DIQMTQSPSSLSASVGDRVTITCRASQDISSYLNWYQQKPGKAPKLLIYYTSRLHSGVPSRFSGSGSGTDFTFTISSLQPEDIATYYCQQGNTLPYTFGQGTKVEIK
49	16000	37000	890	58000	–	–	–	–	–	–	–	–	IL6R-BP911/IL6R-L (antibody, human IgG1, IgG1; Fc variant of IL6R-B3; copies: 2 + 2) heavy: QVQLQESGPGLVKPSETLSLTCAVSGHSISHDHAWSWVRQPPGEGLEWIGFISYSGITNYNPSLQGRVTISRDNSKNTLYLQMNSLRAEDTAVYYCARSLARTTAMDYWGEGTLVTVSSASTKGPSVFPLAPSSKSTSGGTAALGCLVKDYFPEPVTVSWNSGALTSGVHTFPAVLQSSGLYSLSSVVTVPSSSLGTQTYICNVNHKPSNTKVDKKVEPKSCDKTHTCPPCPAPELLGGDSVFLFPPKPKDTLMISRTPEVTCVVVDVSHEDPEVKFNWYVDGVEVHNAKTKPREEQYNSTYRVVSVLTVLHQDWLNGKEYKCKVSNKALPKPIEKTISKAKGQPREPQVYTLPPSRDELTKNQVSLTCLVKGFYPSDIAVEWESNGQPENNYKTTPPVLDSDGSFFLYSKLTVDKSRWQQGNVFSCSVMHEALHNHYTQESLSLSP light: DIQMTQSPSSLSASVGDRVTITCRASQDISSYLNWYQQKPGKAPKLLIYYTSRLHSGVPSRFSGSGSGTDFTFTISSLQPEDIATYYCQQGNTLPYTFGQGTKVEIK

The next lines start with the binder.

Binder	Kd (FcγRIa [1]) [nM]	Kd (FcγRIIa type R [2]) [nM]	Kd (FcγRIIa type H [3]) [nM]	Kd (FcγRIIb [4]) [nM]	Kd (FcγRIIIa type V [5]) [nM]	Kd (FcγRIa [6]) [nM]	Kd (FcγRIIa type R [7]) [nM]	Kd (FcγRIIa type H [8]) [nM]	Kd (FcγRIIb [9]) [nM]	Kd (FcγRIIIa type V [10]) [nM]	KD(IIb) of the parent polypeptide/KD(IIb) of altered polypeptide (FcγRIIb [11]) [fold]	KD(IIaH)/KD(IIb) (FcγRIIb [12])	KD(IIaR)/KD(IIb) (FcγRIIb [13])
IL6R-BP120/IL6R-L (antibody, human IgG1, IgG1; Fc variant of IL6R-B3; copies: 2 + 2) heavy: QVQLQESGPGLVKPSETLSLTCAVSGHSISHDHAWSWVRQPPGEGLEWIGFISYSGITNYNPSLQGRVTISRDNSKNTLYLQMNSLRAEDTAVYYCARSLARTTAMDYWGEGTLVTVSSASTKGPSVFPLAPSSKSTSGGTAALGCLVKDYFPEPVTVSWNSGALTSGVHTFPAVLQSSGLYSLSSVVTVPSSSLGTQTYICNVNHKPSNTKVDKKVEPKSCDKTHTCPPCPAPELLGGDSVFLFPPKPKDTLMISRTPEVTCVVVDVSHEDPEVKFNWYVDGVEVHNAKTKPREEQYNSTYRVVSVLTVLHQDWLNGKEYKCKVSNEALPAPIEKTISKAKGQPREPQVYTLPPSRDELTKNQVSLTCLVKGFYPSDIAVEWESNGQPENNYKTTPPVLDSDGSFFLYSKLTVDKSRWQQGNVFSCSVMHEALHNHYTQESLSLSP light: DIQMTQSPSSLSASVGDRVTITCRASQDISSYLNWYQQKPGKAPKLLIYYTSRLHSGVPSRFSGSGSGTDFTFTISSLQPEDIATYYCQQGNTLPYTFGQGTKVEIK	6.6	9600	65000	1000	79000	–	–	–	–	–	–	–	–
IL6R-BP191/IL6R-L (antibody, human IgG1, Anti-IL-6R human IgG1 variant; copies: 2 + 2) heavy: QVQLQESGPGLVKPSETLSLTCAVSGHSISHDHAWSWVRQPPGEGLEWIGFISYSGITNYNPSLQGRVTISRDNSKNTLYLQMNSLRAEDTAVYYCARSLARTTAMDYWGEGTLVTVSSASTKGPSVFPLAPSSKSTSGGTAALGCLVKDYFPEPVTVSWNSGALTSGVHTFPAVLQSSGLYSLSSVVTVPSSSLGTQTYICNVNHKPSNTKVDKKVEPKSCDKTHTCPPCPAPDLLGGDSVFLFPPKPKDTLMISRTPEVTCVVVDVSDEDGEVKFNWYVDGVEVHNAKTKPREEQYNSTYRVVSVLTVLHQDWLNGKEYKCKVSNAALPKPIEKTISKAKGQPREPQVYTLPPSRDELTKNQVSLTCLVKGFYPSDIAVEWESNGQPENNYKTTPPVLDSDGSFFLYSKLTVDKSRWQQGNVFSCSVMHEALHNHYTQESLSLSP light: DIQMTQSPSSLSASVGDRVTITCRASQDISSYLNWYQQKPGKAPKLLIYYTSRLHSGVPSRFSGSGSGTDFTFTISSLQPEDIATYYCQQGNTLPYTFGQGTKVEIK	–	–	–	–	–	4	3000	27000	150	49000	21.2	185	20.3
IL6R-BP126/IL6R-L (antibody, human IgG1, IgG1; Fc variant of IL6R-B3; copies: 2 + 2) heavy: QVQLQESGPGLVKPSETLSLTCAVSGHSISHDHAWSWVRQPPGEGLEWIGFISYSGITNYNPSLQGRVTISRDNSKNTLYLQMNSLRAEDTAVYYCARSLARTTAMDYWGEGTLVTVSSASTKGPSVFPLAPSSKSTSGGTAALGCLVKDYFPEPVTVSWNSGALTSGVHTFPAVLQSSGLYSLSSVVTVPSSSLGTQTYICNVNHKPSNTKVDKKVEPKSCDKTHTCPPCPAPELLGGDSVFLFPPKPKDTLMISRTPEVTCVVVDVSHEDPEVKFNWYVDGVEVHNAKTKPREEQYNSTYRVVSVLTVLHQDWLNGKEYKCKVSNLALPAPIEKTISKAKGQPREPQVYTLPPSRDELTKNQVSLTCLVKGFYPSDIAVEWESNGQPENNYKTTPPVLDSDGSFFLYSKLTVDKSRWQQGNVFSCSVMHEALHNHYTQESLSLSP light: DIQMTQSPSSLSASVGDRVTITCRASQDISSYLNWYQQKPGKAPKLLIYYTSRLHSGVPSRFSGSGSGTDFTFTISSLQPEDIATYYCQQGNTLPYTFGQGTKVEIK	7.4	11000	45000	1400	56000	–	–	–	–	–	–	–	–
IL6R-BP183/IL6R-L (antibody, human IgG1, Anti-IL-6R human IgG1 variant; copies: 2 + 2) heavy: QVQLQESGPGLVKPSETLSLTCAVSGHSISHDHAWSWVRQPPGEGLEWIGFISYSGITNYNPSLQGRVTISRDNSKNTLYLQMNSLRAEDTAVYYCARSLARTTAMDYWGEGTLVTVSSASTKGPSVFPLAPSSKSTSGGTAALGCLVKDYFPEPVTVSWNSGALTSGVHTFPAVLQSSGLYSLSSVVTVPSSSLGTQTYICNVNHKPSNTKVDKKVEPKSCDKTHTCPPCPAPDYLGGDSVFLFPPKPKDTLMISRTPEVTCVVVDVSHEDGEVKFNWYVDGVEVHNAKTKPREEQYNSTYRVVSVLTVLHQDWLNGKEYKCKVSNAALPKPIEKTISKAKGQPREPQVYTLPPSRDELTKNQVSLTCLVKGFYPSDIAVEWESNGQPENNYKTTPPVLDSDGSFFLYSKLTVDKSRWQQGNVFSCSVMHEALHNHYTQESLSLSP light: DIQMTQSPSSLSASVGDRVTITCRASQDISSYLNWYQQKPGKAPKLLIYYTSRLHSGVPSRFSGSGSGTDFTFTISSLQPEDIATYYCQQGNTLPYTFGQGTKVEIK	–	–	–	–	–	17	2600	15000	240	56000	12.9	62.5	10.7
